We go through two substances from paper PMC4075432.

In assay [1] the target is BCL2 (human (endogenous in OCI-LY8)) (UniProt P10415). Put plainly: co-IP.
The target in assay [2] is GST-BCL2 (UniProt P10415). Nature of the assay: fluorescence polarisation. On the technique in general: Fluorescence polarisation rises when a labelled molecule tumbles more slowly, as on binding a larger partner.

“poly(ADP) ribose polymerase 1 (PARP1) (from UniProt P09874 1-1014) (enzyme)” returned a percent of PARP1 displaced from BCL2 by 100 nM ABT-737 in assay [1] of 65%.
As usually defined, the Ki is a measure of affinity in units of concentration, obtained from inhibition or displacement. Lower therefore signals higher affinity. As to “purified PARP1 (from UniProt P09874 1-1014) (enzyme)”, the Ki in assay [2] worked out at 77 nM.
